Key:
[1] = biological target: clone nr 1.1 (SEQ ID NO: 1), monoclonal phage; assay: cross reactivity phage ELISA on coated toxin
[2] = biological target: clone nr 1.2 (SEQ ID NO: 2), monoclonal phage; assay: cross reactivity phage ELISA on coated toxin
[3] = biological target: clone nr 1.4 (SEQ ID NO: 3), monoclonal phage; assay: cross reactivity phage ELISA on coated toxin
[4] = biological target: clone nr 1.8 (SEQ ID NO: 4), monoclonal phage; assay: cross reactivity phage ELISA on coated toxin
[5] = biological target: clone nr 1.9 (SEQ ID NO: 5), monoclonal phage; assay: cross reactivity phage ELISA on coated toxin
[6] = biological target: clone nr 4.10 (SEQ ID NO: 6), monoclonal phage; assay: cross reactivity phage ELISA on coated toxin
[7] = biological target: clone nr 1.8 (SEQ ID NO: 4), monoclonal phage; assay: phage ELISA, dilution series 1/10 to 1/1000
[8] = biological target: clone nr 1.9 (SEQ ID NO: 5), monoclonal phage; assay: phage ELISA, dilution series 1/10 to 1/1000
[9] = biological target: clone nr 4.10 (SEQ ID NO: 6), monoclonal phage; assay: phage ELISA, dilution series 1/10 to 1/1000
[10] = biological target: clone nr 1.1 (SEQ ID NO: 1), monoclonal phage; assay: monoclonal phage ELISA on coated myotoxin II
TAMRA-labeled JB006 = assay: fluorescence polarization with TAMRA-labeled JB006

Measured: binding result

B1: α-cobra toxin (a-cbtx) from Naja kaouthia (other)
chain: IRCFITPDITSKDCPNGHVCYTKTWCDAFCSIRGKRVDLGCAATCPTVKTGVDIQCCSTDNCNPFPTRKRP
binds: [1] | [2] | [3] | [4] | [5] | [6]

B2: Myotoxin II from venom of Bothrops asper (other)
chain: SLFELGKMILQETGKNPAKSYGAYGCNCGVLGRGKPKDATDRCCYVHKCCYKKLTGCNPKKDRYSYSWKDKTIVCGENNSCLKELCECDKAVAICLRENLNTYNKKYRYYLKPLCKKADAC
not listed: [1] | [4] | [5] | [6]
binds: all other assays above

Reference: patent US20210070804A1 (published 2021)
